Here are results for ten molecules from PMC4479705 (mBio, 2015).

The chains are these.
B1: human anti-FHbp Fab 7B (Fab, V domains shown)
VH: QVQLVQSGPEVKKPGASVKISCKTSGYTFTTNALYWVRQAPGQRPEWVGWLNTGNGNSKTSQNFQGRVTITRDTSASSTYMELSSLTFEDTAVYFCARRPSGDYNTYYFDFWGQGTLVTVSS
VL: EIVMTQSPGTLSLSPGGRGTLSCRASESVSSSYISWYQHKSGQAPRLLIYGASSRATGIPDRFSGSGSGTDFTLTISRLEPEDFAVYYRQYFSGSKGLTFGPGTKVDIK
B2: control chimeric human-mouse anti-FHbp Fab 502 (Fab, V domains shown)
VH: EVQLQESGPGLAKPSQTLSLTCSVTGYSITSDFWNWIRKFPGNKLEYMGYISYSGSTDYNPSLKSRISITRDTSKNQYYLQLNSVTAEDTATYYCARYFGSSYAMDHWGQGTSVTVSS
VL: DIQMTQSPASLSASVGETVTITCRASGNIHNYLAWYQQKQGKSPQLLVYTAKTLAEGVPSRFSGSGSGTQFSLKINSLQPEDFGSYYCQHFWSTPWTFGGGTKLEIK
B3: human anti-FHbp Fab 8A (Fab, V domains shown)
VH: QVQLVESGGGLVQPGGSLRLSCVTSGFTFRSYAMTWVRQAPGKGLEWVSSISHSGGSTKYADSVKGRLTISRDDSMDTLYLQMNSLRAEDTAIYYCAKDQISYPAASPLDYWGRGTLVTVSS
VL: EIVLTQSPGTLSLSPGERATLSCRASQSFSSFSLAWYQQKPGQAPRLLIYAPSNRATGIADRFSGSGSGTDFTLTISRLEPEDFAVYYCQQYGSSPITFGQGTRLEIK
B4: human anti-FHbp Fab 10C (Fab, V domains shown)
VH: QVQLVESGGGVVQPGRSLRLSCPASGFTFSRYALHWVRQAPGKGLEWVAVISFDGSFKYYADSVKGRFSISRDNFKNTLYLQMNSLRAEDTAVYYCAKDDTLHASGWGGFDYWGQGALVTVSS
VL: EIVLTQSPATLSLSPGERATLSCRASQSVTSYLTWYQHKPGQAPRLLIYHTSYRATGIPARFSGSGSGTDFTLSITSLEPEDFAVYYCQQRSNWPFTFGPGTKVDIK
B5: human anti-FHbp Fab 3C (Fab, V domains shown)
VH: QVQLQESGPGLVKPSETLSLTCTVSGYSITRGYYWGWIRQPPGKGLEWIGGIYHSGTTYQNPSLRSRVTFSVDTSKNQFSLKLRSVTAADTAVYYCARDNYSSNLDYWGQGTMVTVSS
VL: EIVLTQSPGTLSLSPGERATLSCRASQSVSSSYLAWYQQKAGQAPRLLIYGASSRATGIPERFSGSGSGTDFTLTISRLEPEDFAIYYCQQYGSSRFIFGPGTKVDIK
B6: human anti-FHbp Fab 6B (Fab, V domains shown)
VH: EVQLVESGGGLVQPGGSLRLSCAASGFTFSSYAMSWVRQAPGKGLEWVSAISGSGGSSHYTDSVKGRFTISRDNSKNTLWLQMNSLRAEDTAIYYCAKTSGSYYYHYEIDVWGQGTTVTVSS
VL: EIVLTQSPGTLSLSPGERATLSCRASQSVSSSYLAWYQQKPGQAPRLLIYGTSNRATGIPDRFSGSGSGTDFTLTVSRLEPEDFAVYYCQQYGSSPCSFGQGTKLELK
B7: human anti-FHbp Fab 4B (Fab, V domains shown)
VH: EVQLVESGGGLAQPGGSLRLSCVASGSTFGSYAIYWVRQAPGKGLEWVSGISGSGTKIDYADSVKGRFTISRDISKNTLYLQMNSLRAEDTAVYYCAKLGFFDYWGQGTQVTVSS
VL: EIVLTQSPDTLSLSPGERATLSCRASQSVSTYLFWYQKKPGQAPRLLIFDASNRATGIPVRFSGSGSGTDFTLTISSLEPEDFAVYYCQQRSNWPQTFGGGTKVEIK
B8: human anti-FHbp Fab 5B (Fab, V domains shown)
VH: EVQLLESGGGLVQPGGSLRLSCAASGYTFGSYAMTWVRQGPGKGLEWVSTILGSGADTYYADSVKGRFTISRDNSRNTLFMQLSSLRAEDTAVYYCAKLGYYDTWGQGTLVTVSS
VL: EIVLTQSPATLSLSPGERATLSCRASQSIASYLYWYQQKPGQAPRLLIFDASNRATGTPARFSGSGSGTDFTLTISSLEPEDFAVYYCQQRNNWPRALTFGGGTKVEIK
B9: human anti-FHbp Fab 2A (Fab, V domains shown)
VH: QVQLQQSGSGLVKPSQTLSLTCTVSGGSINIGDRYWSWLRQSPGKGLEWIGYIDYSGDTYYNSSLKSRAAISIDTSNKQFSLKLSSVTAADTAVYYCARGSSDFSSGYFFDYWGQGTLVTVSS
VL: ETTLTQSPATLSVSPGERAILSCRDSQSVSSNLAWYQQKPGQAPRLLIFGASTRATGIPARFSGSGSGTEFTLTISSLQSEDFAVYYCQQYNNWLSFGQGTKLEIK
B10: human anti-FHbp Fab 9B (Fab, V domains shown)
VH: EVQLVQSGAELKKPGESLKISCKASGYTFTNYWVVWVRQMPGEGLEWMGSIHPRDSDARYSLSFEGRVTFSVDKSTTTAYLQWSSLKVSDSAIYYCARLSQVSGWSPWVGPWGQGTLVTVSS
VL: DIVMTQSPSSLSASVGDRVTITCRASQSISVSLNWYQQKPGKAPKVLIYAASRLQSGIPSRFSGSGSGSHFTLTISSLQPEDFATYYCQETYSDLMYTFGQGTKVEIK

Chain of recombinant factor H binding protein (FHbp) ID 1 (Neisseria meningitidis) (Q9JXV4 20-274): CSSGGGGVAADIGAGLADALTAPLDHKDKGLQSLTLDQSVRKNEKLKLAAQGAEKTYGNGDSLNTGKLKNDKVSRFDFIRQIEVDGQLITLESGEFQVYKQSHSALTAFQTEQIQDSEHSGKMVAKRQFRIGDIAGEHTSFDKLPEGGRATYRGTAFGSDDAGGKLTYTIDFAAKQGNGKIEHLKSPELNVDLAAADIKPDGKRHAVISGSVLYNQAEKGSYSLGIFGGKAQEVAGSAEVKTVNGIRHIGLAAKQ

The first assay addresses recombinant factor H binding protein (FHbp) ID 1 (Neisseria meningitidis) (UniProt Q9JXV4). The assay can be described thus: SPR.
For the molecule B1, the Kd was 22.9 nM.

For another assay, the target named is recombinant factor H binding protein (FHbp) ID 1 (Neisseria meningitidis serogroup B …, UniProt Q9JXV4). The assay can be described thus: SPR. Background: SPR reads the build-up and loss of mass on a sensor chip optically.
Chain of recombinant factor H binding protein (FHbp) ID 1 (Q9JXV4 20-274): as above
B2: the Kd was determined as 4.8 nM, the off-rate constant (koff) came out at 0.0053 s⁻¹ and the on-rate constant (kon) worked out at 1.09e+06 M⁻¹ s⁻¹.
Regarding B3, the Kd was determined as 1.04 nM, the koff is 0.002 s⁻¹ and the kon is 2.3e+06 M⁻¹ s⁻¹.
As to B4, the dissociation constant (Kd) was determined as 0.68 nM, the koff was determined as 0.0005 s⁻¹ and the kon is 930000 M⁻¹ s⁻¹.
Take B5: the dissociation constant (Kd) came out at 130 nM, the koff is 0.0032 s⁻¹ and the association rate constant (kon) is 30000 M⁻¹ s⁻¹.
On to B6, for which the Kd was determined as 0.82 nM, the off-rate (koff) is 0.0004 s⁻¹ and the kon was found to be 500000 M⁻¹ s⁻¹.
On to B7, for which the Kd came out at 0.86 nM, the off-rate (koff) is 0.0006 s⁻¹ and the on-rate (kon) was 720000 M⁻¹ s⁻¹.
As to B8, the Kd is 10.6 nM, the off-rate (koff) was found to be 0.0041 s⁻¹ and the kon came out at 390000 M⁻¹ s⁻¹.
Take B9: the Kd amounted to 115 nM, the koff stood at 0.061 s⁻¹ and the kon amounted to 530000 M⁻¹ s⁻¹.
Regarding B10, the Kd turned out to be 0.019 nM, the koff came out at 4e-05 s⁻¹ and the association rate constant (kon) worked out at 1.85e+06 M⁻¹ s⁻¹.

Usually Kd stands for the free concentration of one partner at which half of the binding sites on the other are occupied at equilibrium, for simple one-to-one binding. One may read the koff as the rate constant with which the complex falls apart. One may read the kon as a measure of how fast the partners come together.
